In this experiment the target is USP1/UAF1 (UniProt O94782). Briefly: global kinetic fit.
Sequence of UniProt O94782 (O94782 21-785 G670A/G671A, chain 1 of 2): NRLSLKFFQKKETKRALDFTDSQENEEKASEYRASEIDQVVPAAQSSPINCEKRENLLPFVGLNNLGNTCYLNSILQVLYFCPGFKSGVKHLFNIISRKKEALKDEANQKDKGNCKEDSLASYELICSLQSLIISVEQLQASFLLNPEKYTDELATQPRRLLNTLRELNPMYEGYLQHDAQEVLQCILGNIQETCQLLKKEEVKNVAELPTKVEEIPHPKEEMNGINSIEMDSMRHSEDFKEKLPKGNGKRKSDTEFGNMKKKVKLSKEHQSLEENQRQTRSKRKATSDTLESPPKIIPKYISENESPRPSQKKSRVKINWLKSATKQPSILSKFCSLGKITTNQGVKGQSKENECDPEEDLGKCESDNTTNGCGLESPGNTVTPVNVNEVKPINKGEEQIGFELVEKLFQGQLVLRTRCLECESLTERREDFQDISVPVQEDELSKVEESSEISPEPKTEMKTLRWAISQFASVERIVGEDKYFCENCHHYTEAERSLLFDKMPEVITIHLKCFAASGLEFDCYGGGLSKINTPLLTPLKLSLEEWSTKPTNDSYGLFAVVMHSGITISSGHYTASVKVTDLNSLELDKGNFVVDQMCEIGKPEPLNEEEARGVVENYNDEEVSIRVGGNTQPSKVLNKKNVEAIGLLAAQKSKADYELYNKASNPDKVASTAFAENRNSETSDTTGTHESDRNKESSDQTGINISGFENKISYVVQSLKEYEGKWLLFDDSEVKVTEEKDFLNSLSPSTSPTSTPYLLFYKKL
Sequence of UniProt O94782 (Q8TAF3 9-677, chain 2 of 2, further chain): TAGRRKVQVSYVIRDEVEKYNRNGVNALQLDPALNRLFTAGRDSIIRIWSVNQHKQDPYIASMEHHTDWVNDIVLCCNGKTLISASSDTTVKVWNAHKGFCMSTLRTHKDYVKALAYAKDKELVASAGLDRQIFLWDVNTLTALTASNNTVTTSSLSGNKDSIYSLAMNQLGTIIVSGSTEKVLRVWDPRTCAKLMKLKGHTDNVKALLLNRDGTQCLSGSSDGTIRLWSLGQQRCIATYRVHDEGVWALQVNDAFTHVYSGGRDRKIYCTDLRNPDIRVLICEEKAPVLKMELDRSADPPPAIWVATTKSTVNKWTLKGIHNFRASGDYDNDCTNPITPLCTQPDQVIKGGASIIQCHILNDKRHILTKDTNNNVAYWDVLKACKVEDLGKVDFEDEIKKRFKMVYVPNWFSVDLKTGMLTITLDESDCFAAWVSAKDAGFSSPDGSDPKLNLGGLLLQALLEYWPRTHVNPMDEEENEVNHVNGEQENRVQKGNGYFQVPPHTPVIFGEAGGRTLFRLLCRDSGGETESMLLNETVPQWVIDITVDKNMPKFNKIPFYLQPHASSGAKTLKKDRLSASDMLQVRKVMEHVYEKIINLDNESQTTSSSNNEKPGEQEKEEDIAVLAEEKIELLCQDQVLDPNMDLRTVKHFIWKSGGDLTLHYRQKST

By koff is commonly meant the rate constant with which the complex falls apart. Low readings indicate slow dissociation, high ones fast dissociation. Turning to “K63-linked diubiquitinated PCNA (K63-PCNA-Ub2) (from UniProt P12004 1-261; P0CG48 1-76; P0CG48 1-76) (complex)”, the koff stood at 1240 s⁻¹.
